# Experimental data as given in publication PMC2775898 (The EMBO Journal, 2009).
# Where no end group is shown, it is not given here. The star is where a group is joined. Biotin = O=C1N[C@H]2[C@H](CS[C@H]2CCCCC(=O)*)N1
# T1: Tiam1 PHCCEx domain (PH-CC-Ex region, residues 429-702) (mouse, UniProt Q60610 429-702)
# T1 sequence (looked up): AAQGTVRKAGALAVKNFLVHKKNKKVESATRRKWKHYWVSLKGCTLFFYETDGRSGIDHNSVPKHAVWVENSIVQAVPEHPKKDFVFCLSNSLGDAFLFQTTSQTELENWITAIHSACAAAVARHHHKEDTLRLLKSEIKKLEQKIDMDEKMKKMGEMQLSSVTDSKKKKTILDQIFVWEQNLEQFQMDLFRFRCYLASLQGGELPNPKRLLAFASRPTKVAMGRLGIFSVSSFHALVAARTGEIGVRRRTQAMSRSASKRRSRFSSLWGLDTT
# T2: Tiam2 PHCCEx domain, alanine mutant Lys627 (mouse, UniProt Q6ZPF3 500-757, alanine mutant Lys627)
# T2 sequence (looked up): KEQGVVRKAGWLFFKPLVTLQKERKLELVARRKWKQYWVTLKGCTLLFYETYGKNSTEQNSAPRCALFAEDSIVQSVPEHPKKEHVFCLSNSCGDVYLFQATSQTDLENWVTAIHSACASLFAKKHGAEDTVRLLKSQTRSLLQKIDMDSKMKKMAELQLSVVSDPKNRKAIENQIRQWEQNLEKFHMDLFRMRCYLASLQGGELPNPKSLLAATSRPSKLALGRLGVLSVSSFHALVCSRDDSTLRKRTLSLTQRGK
# T3: Tiam2 PHCCEx domain, alanine mutant Lys624 (mouse, UniProt Q6ZPF3 500-757, alanine mutant Lys624)
# T3 sequence (looked up): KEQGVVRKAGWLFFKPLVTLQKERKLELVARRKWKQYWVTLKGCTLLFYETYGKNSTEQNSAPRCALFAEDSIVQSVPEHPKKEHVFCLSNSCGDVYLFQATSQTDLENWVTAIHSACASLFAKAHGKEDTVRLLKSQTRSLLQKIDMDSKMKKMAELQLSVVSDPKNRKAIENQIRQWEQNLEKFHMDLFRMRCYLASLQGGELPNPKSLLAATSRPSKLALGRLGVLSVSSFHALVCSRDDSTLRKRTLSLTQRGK
# T4: Tiam2 PHCCEx domain, alanine mutant Arg632 (mouse, UniProt Q6ZPF3 500-757, alanine mutant Arg632)
# T4 sequence (looked up): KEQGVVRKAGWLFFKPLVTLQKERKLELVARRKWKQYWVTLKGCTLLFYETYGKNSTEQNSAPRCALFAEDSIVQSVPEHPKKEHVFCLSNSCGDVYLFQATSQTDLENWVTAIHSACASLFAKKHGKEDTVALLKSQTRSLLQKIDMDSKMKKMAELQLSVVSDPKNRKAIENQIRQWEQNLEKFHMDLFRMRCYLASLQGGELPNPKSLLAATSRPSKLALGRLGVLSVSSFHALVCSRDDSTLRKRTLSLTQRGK
# T5: Tiam2 PHCCEx domain, alanine mutant Arg716 (R716A) (mouse, UniProt Q6ZPF3 500-757, R716A)
# T5 sequence (looked up): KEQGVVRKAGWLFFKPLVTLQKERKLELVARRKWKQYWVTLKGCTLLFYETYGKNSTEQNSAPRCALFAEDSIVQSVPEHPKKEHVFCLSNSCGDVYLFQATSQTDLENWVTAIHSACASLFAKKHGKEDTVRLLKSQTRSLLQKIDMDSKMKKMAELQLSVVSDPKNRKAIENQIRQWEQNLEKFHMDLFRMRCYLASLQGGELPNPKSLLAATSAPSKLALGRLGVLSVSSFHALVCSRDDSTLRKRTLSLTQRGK
# T6: Tiam2 PHCCEx domain, alanine mutant Arg693 (R693A) (mouse, UniProt Q6ZPF3 500-757, R693A)
# T6 sequence (looked up): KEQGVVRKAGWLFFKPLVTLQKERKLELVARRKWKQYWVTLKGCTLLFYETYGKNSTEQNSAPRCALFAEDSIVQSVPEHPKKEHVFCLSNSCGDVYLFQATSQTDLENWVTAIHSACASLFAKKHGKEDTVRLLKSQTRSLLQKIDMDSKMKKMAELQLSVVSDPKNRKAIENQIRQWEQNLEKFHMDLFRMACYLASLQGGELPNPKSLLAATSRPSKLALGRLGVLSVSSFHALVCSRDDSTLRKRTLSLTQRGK
# T7: Tiam2 PHCCEx domain, alanine mutant Lys650 (mouse, UniProt Q6ZPF3 500-757, alanine mutant Lys650)
# T7 sequence (looked up): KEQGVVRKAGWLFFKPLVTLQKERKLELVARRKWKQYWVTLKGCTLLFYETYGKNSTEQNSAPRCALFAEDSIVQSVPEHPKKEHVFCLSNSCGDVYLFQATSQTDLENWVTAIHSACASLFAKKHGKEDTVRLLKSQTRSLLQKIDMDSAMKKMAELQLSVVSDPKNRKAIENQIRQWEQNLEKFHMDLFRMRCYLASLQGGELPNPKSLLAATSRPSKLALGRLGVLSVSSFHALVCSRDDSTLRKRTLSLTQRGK
# T8: Tiam2 PHCCEx domain, alanine mutant Lys653 (mouse, UniProt Q6ZPF3 500-757, alanine mutant Lys653)
# T8 sequence (looked up): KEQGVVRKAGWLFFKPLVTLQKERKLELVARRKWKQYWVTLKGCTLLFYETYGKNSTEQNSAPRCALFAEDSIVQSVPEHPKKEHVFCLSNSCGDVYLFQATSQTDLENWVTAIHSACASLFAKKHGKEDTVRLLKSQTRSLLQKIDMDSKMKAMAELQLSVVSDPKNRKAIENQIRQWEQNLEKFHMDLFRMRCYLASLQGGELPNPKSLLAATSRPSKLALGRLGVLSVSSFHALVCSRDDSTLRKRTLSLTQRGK
# T9: Tiam2 PHCCEx domain, alanine mutant Arg691 (mouse, UniProt Q6ZPF3 500-757, alanine mutant Arg691)
# T9 sequence (looked up): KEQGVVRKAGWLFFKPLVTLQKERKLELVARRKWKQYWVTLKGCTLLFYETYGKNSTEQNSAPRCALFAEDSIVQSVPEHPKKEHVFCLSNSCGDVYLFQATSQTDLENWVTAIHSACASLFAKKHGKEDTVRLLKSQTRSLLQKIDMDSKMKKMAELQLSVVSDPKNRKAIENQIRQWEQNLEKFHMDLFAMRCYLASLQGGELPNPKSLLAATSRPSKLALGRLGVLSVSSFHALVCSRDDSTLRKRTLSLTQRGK
# T10: Tiam2 PHCCEx domain (PH-CC-Ex region, residues 500-757) (mouse, UniProt Q6ZPF3 500-757)
# T10 sequence (looked up): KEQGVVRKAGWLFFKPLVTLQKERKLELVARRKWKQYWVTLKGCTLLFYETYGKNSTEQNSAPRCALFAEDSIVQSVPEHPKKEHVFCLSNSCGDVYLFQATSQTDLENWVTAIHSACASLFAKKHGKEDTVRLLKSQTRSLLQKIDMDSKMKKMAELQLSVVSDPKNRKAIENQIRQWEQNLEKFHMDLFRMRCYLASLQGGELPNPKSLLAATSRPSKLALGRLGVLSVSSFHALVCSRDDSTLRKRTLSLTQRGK
# How the values were obtained:
# [1] = target: GFP-tagged full-length Par3 (UniProt Q9Z340 1-1337); assay: co-IP
# Sequence of GFP-tagged full-length Par3 (Q9Z340 whole entry, the tested form may be a part): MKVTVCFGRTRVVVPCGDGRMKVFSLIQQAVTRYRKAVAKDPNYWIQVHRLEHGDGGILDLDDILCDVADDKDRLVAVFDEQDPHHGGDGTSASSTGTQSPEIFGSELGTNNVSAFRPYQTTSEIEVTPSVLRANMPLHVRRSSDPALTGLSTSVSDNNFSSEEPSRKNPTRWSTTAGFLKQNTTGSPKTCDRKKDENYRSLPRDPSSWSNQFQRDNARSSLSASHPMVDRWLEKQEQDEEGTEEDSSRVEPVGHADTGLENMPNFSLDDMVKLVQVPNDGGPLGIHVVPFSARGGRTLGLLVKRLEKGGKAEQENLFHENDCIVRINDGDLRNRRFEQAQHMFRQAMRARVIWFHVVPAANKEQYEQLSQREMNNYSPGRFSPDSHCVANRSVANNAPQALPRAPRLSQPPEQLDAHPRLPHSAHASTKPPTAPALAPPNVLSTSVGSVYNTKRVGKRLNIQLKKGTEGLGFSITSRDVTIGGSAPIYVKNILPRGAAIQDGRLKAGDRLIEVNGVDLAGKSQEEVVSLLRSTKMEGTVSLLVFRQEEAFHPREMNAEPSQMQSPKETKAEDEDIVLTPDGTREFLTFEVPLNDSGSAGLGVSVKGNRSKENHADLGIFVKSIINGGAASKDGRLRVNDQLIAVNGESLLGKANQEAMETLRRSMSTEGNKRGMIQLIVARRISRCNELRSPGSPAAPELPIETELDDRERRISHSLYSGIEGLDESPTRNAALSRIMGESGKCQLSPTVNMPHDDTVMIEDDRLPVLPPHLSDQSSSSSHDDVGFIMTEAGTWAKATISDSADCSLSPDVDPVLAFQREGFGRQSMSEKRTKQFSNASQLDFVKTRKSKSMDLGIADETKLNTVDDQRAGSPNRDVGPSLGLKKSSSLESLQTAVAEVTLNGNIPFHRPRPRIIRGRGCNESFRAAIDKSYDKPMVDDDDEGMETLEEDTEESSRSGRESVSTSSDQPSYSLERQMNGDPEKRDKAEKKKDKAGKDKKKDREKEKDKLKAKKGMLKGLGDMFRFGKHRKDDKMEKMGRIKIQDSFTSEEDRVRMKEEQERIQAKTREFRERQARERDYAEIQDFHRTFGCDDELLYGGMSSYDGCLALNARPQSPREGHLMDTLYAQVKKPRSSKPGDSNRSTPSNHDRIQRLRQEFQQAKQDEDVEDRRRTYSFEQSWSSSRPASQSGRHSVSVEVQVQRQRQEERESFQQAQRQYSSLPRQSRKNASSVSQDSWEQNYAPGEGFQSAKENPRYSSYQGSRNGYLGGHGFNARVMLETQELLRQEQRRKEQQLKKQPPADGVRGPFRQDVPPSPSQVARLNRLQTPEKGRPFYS
# [2] = target: T1, Tiam1 PHCCEx domain (PH-CC-Ex region, …); assay: SPR
# [3] = target: T2, Tiam2 PHCCEx domain, alanine mutant …; assay: SPR
# [4] = target: T3, Tiam2 PHCCEx domain, alanine mutant …; assay: SPR
# [5] = target: T4, Tiam2 PHCCEx domain, alanine mutant …; assay: SPR
# [6] = target: T5, Tiam2 PHCCEx domain, alanine mutant …; assay: SPR
# [7] = target: T6, Tiam2 PHCCEx domain, alanine mutant …; assay: SPR
# [8] = target: T7, Tiam2 PHCCEx domain, alanine mutant …; assay: SPR
# [9] = target: T8, Tiam2 PHCCEx domain, alanine mutant …; assay: SPR
# [10] = target: T9, Tiam2 PHCCEx domain, alanine mutant …; assay: SPR
# [11] = target: T10, Tiam2 PHCCEx domain (PH-CC-Ex region, …); assay: SPR
binder,measurement,setting,value
"HA-tagged full-length Tiam1 with a double mutation (R622A and R645A) (natural protein, UniProt Q60610 1-1591, looked up) MGNAESQNVDHEFYGEKHASLGRKHTSRSLRLSHKTRRTRHASSGKAIHRNSEVSTRSSSTPSIPQSLAENGLEPFSQEGALDDFGDPIWVDRVDMGLRPVSYTDSSVTPSVDGSIVLTAASVQSMPDSEESRLYGDDATYLAEGGRRQCPYTSNGPTFMETASFKKKRSKSADIWREDSLEFSLSDLSQEHLTSNEEILGSAEEKDCEEARGMETEASPRQLSTCQRANSLGDLYAQKNSGVKANGGPRNRFSSYCRNLVSDIPDLAKHKMPPAAAEETPPYSNYNTLPCRKSHCLSEGATNPQISLSKSMQGRRAKTTQDVNTGEGSEFADSGIEGATTDTDLLSRRSNATNSSYSPPTGRAFVGSDSGSSSTGDRARQGVYENFRRELEMSTTNSESLEEAGSAHSDEQSSGTLSSPGQSDILLTAAQGTVRKAGALAVKNFLVHKKNKKVESATRRKWKHYWVSLKGCTLFFYETDGRSGIDHNSVPKHAVWVENSIVQAVPEHPKKDFVFCLSNSLGDAFLFQTTSQTELENWITAIHSACAAAVARHHHKEDTLRLLKSEIKKLEQKIDMDEKMKKMGEMQLSSVTDSKKKKTILDQIFVWEQNLEQFQMDLFRFACYLASLQGGELPNPKRLLAFASAPTKVAMGRLGIFSVSSFHALVAARTGEIGVRRRTQAMSRSASKRRSRFSSLWGLDTTSKKKQGRPTINQVFGEGTDAVKRSLEGIFDDTVPDGKREKEVVLPSVHQHNPDCDIWVHEYFTPSWFCLPNNQPALTVVRPGDTARDTLELICKTHQLDHSAHYLRLKFLMENRVQFYIPQPEEDIYELLYKEIEICPKVTQNIHIEKSDAAADNYGFLLSSVDEDGIRRLYVNSVKETGLASKKGLKAGDEILEINNRAAGTLNSSMLKDFLSQPSLGLLVRTYPEPEGGVELLENPPHRVDGPVDLGESPLAFLTSNPGHSLSSEQGSSAETAPEEGEGPDLESSDETDHSSKSTEQVAAFCRSLHEMSPSDSSPSPQDATSPQLATTRQLSDADKLRKVICELLETERTYVKDLNCLMERYLKPLQKETFLTQDELDVLFGNLTEMVEFQVEFLKTLEDGVRLVPDLEKLEKVDQFKKVLFSLGGSFLYYADRFKLYSAFCASHTKVPKVLVKAKTDTAFKAFLDAQNPRQQHSSTLESYLIKPIQRVLKYPLLLRELFALTDAESEEHYHLDVAIKTMNKVASHINEMQKIHEEFGAVFDQLIAEQTGEKKEVADLSMGDLLLHTSVIWLNPPASLGKWKKEPELAAFVFKTAVVLVYKDGSKQKKKLVGSHRLSIYEEWDPFRFRHMIPTEALQVRALPSADAEANAVCEIVHVKSESEGRPERVFHLCCSSPESRKDFLKSVHSILRDKHRRQLLKTESLPSAQQYVPFGGKRLCALKGARPAMSRAVSAPSKSLGRRRRRLARNRFTIDSDAISASSPEKEPQQPAGGGDTDRWVEEQFDLAQYEEQDDIKETDILSDDDEFCESLKGASVDRDLQEQLQAASISQRARGRRTLDSHASRMTQLKKQAALSGINGGLESASEEVIWVRREDFAPSRKLNTEI",Par3 binding relative to wild-type Tiam1,[1],~65%
NMDAR loop I peptide (residues 591-610) (biotin on the N-terminus) peptide: not shown,binding result,[2],binds
"Biotin-SQEMVHLVNKEPSETPDQCMTADE (peptide, UniProt P15379-2 327-350, looked up) [CD44 acidic peptide comprising 24 residues (327-350)]",binding result,[3],binds
same,binding result,[4],binds
same,binding result,[5],binds
same,binding result,[6],binds
same,binding result,[7],binds
same,binding result,[8],binds
same,binding result,[9],binds
same,binding result,[10],binds
same,Kd,[11],920 nM
same,binding result,[2],binds
"KPMVDDDDEGMETLEEDTEESSRSGRESVS (peptide, UniProt Q99NH2 931-960, looked up, biotin on the N-terminus) [Par3 acidic cluster peptide (mouse residues 931-960)]",Kd,[11],380 nM
